T1: Roc domain (Homo sapiens, UniProt Q5S007)
T1 construct: A construct of the Roc domain spanning the residues 1329-1520 was cloned in the pET-28a vector providing an N-terminal His6-tag; His6 (N); made in house; host or cells: E. coli BL21(DE3)
T1 sequence (Q5S007 1329-1520): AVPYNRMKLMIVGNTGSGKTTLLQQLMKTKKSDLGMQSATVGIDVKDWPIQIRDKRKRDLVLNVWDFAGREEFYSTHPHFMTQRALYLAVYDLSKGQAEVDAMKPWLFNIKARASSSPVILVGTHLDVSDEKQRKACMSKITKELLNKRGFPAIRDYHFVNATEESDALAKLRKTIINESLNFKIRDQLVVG


Experiments:
LRRK2 = target: T2, LRRK2 (Homo sapiens, UniProt Q5S007, M2397T/R50H); experiment: Determination of kinase inhibition mechanism (Michaelis-Menten curves at varying ATP); type: biochemical; conditions: for mechanism of inhibition vis-a-vis ATP as substrate: Lineweaver-Burk plot and global fit; for α-value: global fit, mixed inhibition model, 10 μM AQT0615, varying ATP
T2 construct: Full-length human LRRK2 was expressed and purified based on previously developed protocols; SF tag (FLAG-tag + Twin-Strep-tag); made in house; host or cells: HEK 293T
Procedure: FIGS. 11A-11C, Dose-response curves (upper panels) for the inhibition of the in vitro LRRK2 kinase activity by the group1 Nbs: Nb1 (FIG. 11A), Nb6 (FIG. 11B) and Nb23 (FIG. 11C), where the Nb concentration was varied from 200 or 150 μM to 0.006 μM in a two-fold serial dilution. The two lower panels show the Michaelis-Menten curves obtained for LRRK2 at varying concentrations of ATP and a fixed (sub-saturating) concentration of peptide substrate (AQT0615), and at varying concentrations of Nb1 (FIG. 11A), Nb6 (FIG. 11B) and Nb23 (FIG. 11C), and the corresponding linearizations according to the Lineweaver-Burk method (double-reciprocal plot). The Nb concentrations used are indicated below the plots. Each datapoint reflects the average (±SD) of three independent measurements.
To further confirm this, we set out to determine the mechanism of inhibition (competitive vs. uncompetitive vs. mixed/non-competitive) of these three Nbs vis-h-vis ATP as substrate, using our peptide phosphorylation assays as output. To this end, full Michaelis-Menten curves were obtained at a fixed (probably sub-saturating) concentration of peptide substrate (10 μM) and varying concentrations of ATP (FIGS. 11A-11C). […] This confirms that these Nbs are not competing with ATP for binding and that they inhibit the reaction by binding on an allosteric site, which is in agreement with the ELISA and CL-MS epitope mapping data. […] For CA12618, fitting on the same model yields a Kic^app of 5±1 μM with an α-value of 1.6±0.4, corresponding a Kic^app of 5 μM and a Kic^app of […]. For the kinase domain-binding CA13612, the linearized curves intersect closer to the Y-axis indicating a mechanism which is more ATP-competitive like. […] Fitting on a mixed inhibition model for CA13612 gives a Kic^app of 9±1 μM with an α-value of 7.5±1.9, corresponding a Kic^app of 9 μM and a Kic^app of 66 μM.
To determine the mechanism of inhibition and apparent Ki (Ki^app) values of CA12610, CA12618, CA13612 the PhosphoSens® Protein Kinase Assay (AssayQuant Technologies Inc.) in combination with the AQT0615 peptide substrate was used. Full Michaelis-Menten curves (relative velocity versus [ATP]) in presence of different Nb concentrations were collected at 30° C. in a buffer consisting of 50 mM HEPES pH 7.5, 0.1% Brij-35, 50 mM NaCl, 10 mM MgCl2 and […], using a fixed concentration of AQT0615 (10 μM) and varying concentrations of ATP. The LRRK2 concentration was chosen such that initial rates (linear fluorescence versus time curves) were obtained, and LRRK2, ATP and the Nbs were preincubated at 4° C. for 30 min prior to starting the reaction by adding the peptide substrate. The Michaelis-Menten curves for the different Nb concentrations were globally fit on a mixed-inhibition model using GraphPad Prism, according to the equation:
(with Kic^app=Ki^app and Ki^app−a·Ki^app)
Additionally, as a diagnostic tool, Michaelis-Menten curves were linearized using the Lineweaver-Burk (double reciprocal) plot.

mScarlet-LRRK2 = target: T3, mScarlet-LRRK2 (Homo sapiens, UniProt Q5S007, M2397T/R50H); experiment: Confocal microscopy of LRRK2 microtubule localization in HEK293 cells; type: cell-based; conditions: HEK293 cells co-transfected with mScarlet-LRRK2 and GFP-Nb, treated with 1 μM MLi-2
T3 construct: expressed in transfected cells; host or cells: HEK293
Description: HEK 293 cells were co-transfected with the indicated GFP-Nbs and mScarlet-LRRK2. […] Scale bar 5 μm.
FIG. 6. […] Scale bar 5 μm.
The binding of LRRK2 to microtubules subsequently reduces the kinesin—and dynein-mediated transport along microtubules.
Recent structural information has linked LRRK2 microtubule relocalization to the conformation of the kinase domain, with a closed conformation favoring LRRK2 binding to microtubules. As a consequence, the commonly used ATP-competitive type I LRRK2 inhibitors trigger this effect. In addition, it was shown before that the WD40 domain is indispensable for LRRK2-microtubule association.
A HEK293 cell line was cultured in complete media (high-glucose Dulbecco's modified Eagle's medium, 10% fetal bovine serum and Penicillin-Streptomycin-Glutamine (Gibco)). Cells were seeded on 8-well p-Slide(Ibidi) and transfected at a confluency of 50-70% with GFP-Nb and mScarlet-LRRK2 constructs, using JetPEI reagent (Polyplus transfection). […] Data acquisition was done with a ×100 oil-immersion objective with a Zeiss LSM800 confocal laser scanning microscope. Image analysis of z-scan was done using the Zeiss microscope software ZEN.

Roc domain = target: T1, Roc domain; experiment: Analytical size exclusion chromatography; type: binding; conditions: data not shown

T2 sequence (Q5S007 whole entry R50H/M2397T): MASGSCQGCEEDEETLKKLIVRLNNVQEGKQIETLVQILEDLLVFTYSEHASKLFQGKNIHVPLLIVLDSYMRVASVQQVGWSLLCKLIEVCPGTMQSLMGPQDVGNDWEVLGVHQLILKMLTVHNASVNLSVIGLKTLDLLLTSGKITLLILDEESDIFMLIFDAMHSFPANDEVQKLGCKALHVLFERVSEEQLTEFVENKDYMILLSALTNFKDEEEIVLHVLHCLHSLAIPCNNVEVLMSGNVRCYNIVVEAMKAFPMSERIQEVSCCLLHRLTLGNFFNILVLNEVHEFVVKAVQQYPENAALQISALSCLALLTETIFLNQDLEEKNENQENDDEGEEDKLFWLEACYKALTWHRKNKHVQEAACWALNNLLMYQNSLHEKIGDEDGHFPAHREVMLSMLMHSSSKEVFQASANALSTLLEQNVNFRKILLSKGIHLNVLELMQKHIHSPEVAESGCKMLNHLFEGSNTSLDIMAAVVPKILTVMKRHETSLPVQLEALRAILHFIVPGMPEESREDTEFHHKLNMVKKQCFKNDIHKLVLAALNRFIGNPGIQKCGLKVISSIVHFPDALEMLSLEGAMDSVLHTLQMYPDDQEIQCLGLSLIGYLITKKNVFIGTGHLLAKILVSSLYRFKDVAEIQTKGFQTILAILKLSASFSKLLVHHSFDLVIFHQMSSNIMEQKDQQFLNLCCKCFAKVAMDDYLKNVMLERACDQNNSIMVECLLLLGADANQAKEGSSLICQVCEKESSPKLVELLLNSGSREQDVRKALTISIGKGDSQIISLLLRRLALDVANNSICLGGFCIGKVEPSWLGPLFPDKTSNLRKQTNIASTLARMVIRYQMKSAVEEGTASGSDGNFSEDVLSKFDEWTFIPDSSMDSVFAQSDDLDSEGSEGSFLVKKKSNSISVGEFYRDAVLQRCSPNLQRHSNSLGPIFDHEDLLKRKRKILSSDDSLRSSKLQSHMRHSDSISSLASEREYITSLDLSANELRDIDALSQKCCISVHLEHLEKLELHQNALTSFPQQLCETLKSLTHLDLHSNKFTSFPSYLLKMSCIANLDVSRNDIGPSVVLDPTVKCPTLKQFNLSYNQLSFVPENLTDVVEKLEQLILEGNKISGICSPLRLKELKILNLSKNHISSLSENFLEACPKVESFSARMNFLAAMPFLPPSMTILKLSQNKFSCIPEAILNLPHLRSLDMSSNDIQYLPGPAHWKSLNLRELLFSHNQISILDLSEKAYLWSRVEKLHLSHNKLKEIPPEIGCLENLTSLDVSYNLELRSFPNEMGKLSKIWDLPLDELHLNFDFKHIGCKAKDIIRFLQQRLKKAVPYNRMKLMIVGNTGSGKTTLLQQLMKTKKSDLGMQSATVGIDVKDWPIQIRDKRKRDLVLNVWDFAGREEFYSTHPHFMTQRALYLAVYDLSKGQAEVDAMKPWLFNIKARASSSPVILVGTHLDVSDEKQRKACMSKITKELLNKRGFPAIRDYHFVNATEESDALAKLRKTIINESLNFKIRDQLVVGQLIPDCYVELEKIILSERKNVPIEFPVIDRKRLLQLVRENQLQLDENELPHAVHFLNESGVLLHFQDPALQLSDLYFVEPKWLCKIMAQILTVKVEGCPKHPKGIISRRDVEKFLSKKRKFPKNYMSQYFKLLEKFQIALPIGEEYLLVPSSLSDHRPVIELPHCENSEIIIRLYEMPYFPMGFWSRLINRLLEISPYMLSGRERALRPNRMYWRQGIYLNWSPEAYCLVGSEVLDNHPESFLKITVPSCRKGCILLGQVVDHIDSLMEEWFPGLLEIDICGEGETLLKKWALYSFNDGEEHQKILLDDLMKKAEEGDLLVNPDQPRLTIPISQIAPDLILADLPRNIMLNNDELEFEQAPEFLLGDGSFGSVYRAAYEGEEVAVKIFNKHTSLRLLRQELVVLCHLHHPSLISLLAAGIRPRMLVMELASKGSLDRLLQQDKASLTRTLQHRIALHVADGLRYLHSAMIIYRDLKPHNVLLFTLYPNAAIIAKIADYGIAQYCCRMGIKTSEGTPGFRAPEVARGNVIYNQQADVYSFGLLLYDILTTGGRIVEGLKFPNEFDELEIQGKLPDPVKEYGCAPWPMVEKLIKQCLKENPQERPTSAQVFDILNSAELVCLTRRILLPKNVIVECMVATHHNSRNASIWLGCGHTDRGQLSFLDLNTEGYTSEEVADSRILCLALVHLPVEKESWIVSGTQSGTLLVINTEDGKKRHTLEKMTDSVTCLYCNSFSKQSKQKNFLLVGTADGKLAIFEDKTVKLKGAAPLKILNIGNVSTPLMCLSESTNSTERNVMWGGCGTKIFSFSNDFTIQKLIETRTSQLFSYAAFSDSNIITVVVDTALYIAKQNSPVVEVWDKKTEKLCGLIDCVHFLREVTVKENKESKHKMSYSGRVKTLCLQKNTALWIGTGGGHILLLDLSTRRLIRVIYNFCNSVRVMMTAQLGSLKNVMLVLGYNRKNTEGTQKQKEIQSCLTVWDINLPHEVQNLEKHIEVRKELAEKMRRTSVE
T3 sequence (Q5S007 whole entry R50H/M2397T): as above

Molecule	mechanism of inhibition vis-a-vis ATP as substrate (LRRK2)	α-value (LRRK2)	effect on MLi-2-induced recruitment of LRRK2 to microtubules (mScarlet-LRRK2)	binding to Roc (Roc domain)
Nb6: LRRK2-specific Nanobody, SEQ ID NO: 2 (protein, Nanobody CA12618) VHH: MAQVQLVESGGGLVQAGGSLRLSCAASGSIFSPTAMGWYRQAPGKERELVAGITSGGYTNYRNFARGRFTISRDNAKKTVYLQMNSLNPEDTAVYYCNTLTISWSWGQGTQVTVSS	mixed-type inhibition	1.6±0.4		
Nb22: LRRK2-specific Nanobody, SEQ ID NO: 9 (protein, Nanobody CA13611) VHH: MAQVQLVESGGGLVQAGGSLRLSCAASGRTFSSYTMGWFRQAPGKEREFVAAIRWSGGSTYYADSVKGRFTISRDNAKNTVYLQMNSLKPEDTAVYYCAASDRGGFIATSGGWMDYWGKGTQVTVSS			rescuing effect is most prominent	
Nb1: LRRK2-specific Nanobody, SEQ ID NO: 1 (protein, Nanobody CA12610) VHH: MAQVQLVESGGGLVQAGGSLRLSCVASGRIFSGNAMGWYRQAPGRQRELVAGITNGGYTNYRQFVKGRFTISRDNAKRTVYLQMNSLKPEDTAVYYCNALDREARQVDYWGQGTQVTVSS	mixed-type inhibition	1.8±0.5		

Results, then the molecule that gave them:

mechanism of inhibition vis-a-vis ATP as substrate (LRRK2)	α-value (LRRK2)	effect on MLi-2-induced recruitment of LRRK2 to microtubules (mScarlet-LRRK2)	binding to Roc (Roc domain)	Molecule
mixed-inhibition mechanism	7.5±1.9	rescuing effect is most prominent		Nb23: LRRK2-specific Nanobody, SEQ ID NO: 3 (protein, Nanobody CA13612) VHH: MAQVQLVESGGGLVQAGGSLRLSCAASGRTFSRYTMGWFRQAPGKDREFVARITTSGAVTTYADSAKGRFTISRDNAKNTVYLQMNTLKPEDTAVYYCAAGQGQLSSQSRFVDYWGQGTQVTVSS
			binding to Roc was confirmed	Nb42: LRRK2-specific Nanobody, SEQ ID NO: 6 (protein, Nanobody CA14259) VHH: MAQVQLVESGGGLVQAGGSLRLSCAASGDVNYAVGWFRQAPRKEREFVAAINWRGDNTDYTDSVKGRFTISRDNAKNTVYLQMNSLKPEDTAVYYCAAKSAPYWYSDIAPDYWGQGTQVTVSS

From patent US20230087785A1, “Leucine-Rich Repeat Kinase 2 Allosteric Modulators” (VIB VZW, priority 2020, published 2023)
